“And” between values parts separate entries of the source, which are not always exact repeats. Identical values can stand only once.
Assays:
[1] = biological target: T1, TRex CHO A56 over-expressed CB1 (CB1 T210A/fusion partner) (UniProt P21554 1-472); experiment: flow cytometry, IgG titrated on cells
T1 construct: whole, on cells; The fusion partner stands inside the CB1 chain in place of ICL3, not at its end; also called Trex-CHO CB1 T210A/fusion partner; not shown: fusion partner that replaces ICL3
Method: (§1) To further assess TRex CHO parental cells, TRex CHO A56 overexpressed CB1, Native human CB1 TRex CHO A156, 5HT2B, Mouse CB1 and human CB2 were used to examine the specificity of IgG binding. 100 μl of 1×10⁶ cells/ml of cells were incubated with primary antibody IgGs in 3-fold serial dilutions starting from 1 μM to 0.5 nM for 30 minutes on ice. After being washed with 200 μl of FACS buffer twice, cells were incubated with secondary antibody for 30 minutes on ice. Cells were washed with 200 μl of FACS buffer twice and transferred to BD Falcon 5 ml tube and analyzed by FACS.
(§2) For selected binders, full binding curves were generated on CB1 receptor by testing a range of concentrations. Three-fold serial dilutions from 1 μM to 0.1 μM were prepared. Selectivity was determined by measuring binding to cells expressing 5HT2B or CB2, relative to binding to A156 (native human CB1 receptor expressing) or A56 (overexpressed-CB1 receptor with the T210A modification and ICL3 replacement with fusion partner) by flow cytometry. […] PE-conjugated anti-mouse (for detection of anti-CB2) and PE conjugated anti-human antibodies were used to detect CB2 and 5HT2B, respectively.

human CB2 [2] = biological target: T2, human CB2 (human, UniProt P34972 1-360); experiment: flow cytometry, IgG titrated on cells
T2 construct: whole, on cells; also called TRexCHO Human CB2
Method: as §1, §2

[3] = biological target: 5HT2B (expression cell line) (Homo sapiens (Human), UniProt P41595 1-481); experiment: flow cytometry, IgG titrated on cells
Method: as §1, §2

[4] = biological target: T3, native full length human CB1 receptor (cannabinoid 1 receptor) (human, UniProt P21554 1-472); experiment: flow cytometry, IgG titrated on cells
T3 construct: whole, on cells; also called A156; Native human CB1 TRex CHO A156
Method: as §1, §2

[5] = biological target: T1, TRex CHO A56 over-expressed CB1 (CB1 …); experiment: flow cytometry, A56 cells; batch 5.78 mg/ml
Method: as §1, §2

[6] = biological target: T1, TRex CHO A56 over-expressed CB1 (CB1 …); experiment: flow cytometry, A56 cells; batch 4.85 mg/ml
Method: as §1, §2

[7] = biological target: T1, TRex CHO A56 over-expressed CB1 (CB1 …); experiment: flow cytometry, A56 cells; batch 5.9 mg/ml
Method: as §1, §2

mouse CB1 [8] = biological target: T4, mouse CB1 (mouse, UniProt P47746 1-473); experiment: flow cytometry on cells expressing the target
T4 construct: whole, on cells; also called TRexCHO Mouse CB1

[9] = biological target: T3, native full length human CB1 receptor …; experiment: flow cytometry, A156 cells; batch 5.9 mg/ml
Method: as §1, §2

[10] = biological target: T3, native full length human CB1 receptor …; experiment: flow cytometry, A156 cells; batch 4.85 mg/ml
Method: as §1, §2

[11] = biological target: T3, native full length human CB1 receptor …; experiment: flow cytometry, A156 cells; batch 5.78 mg/ml
Method: as §1, §2

[12] = biological target: T1, TRex CHO A56 over-expressed CB1 (CB1 …); experiment: flow cytometry, A56 cells; batch 5.28 mg/ml
Method: as §1, §2

[13] = biological target: T3, native full length human CB1 receptor …; experiment: flow cytometry, A156 cells; batch 5.28 mg/ml
Method: as §1, §2

[14] = biological target: T5, A138 iCAPS (CB1 with ICL3 native sequence replaced with protein 1 sequence) (human, UniProt P21554 99-414); experiment: ELISA, purified IgG on A138 CB1 iCAPS
T5 construct: The insert stands inside the chain in place of ICL3
Method: (§3) Purified IgG was tested for binding to purified CB1 receptor (CB1 Conformation Antigen Presenting System (iCAPS)) by ELISA. Non-biotinylated antigens (e.g. empty iCAPS) were coated directly on Maxisorp plates. The primary antibodies were purified IgGs with 1:3 serial dilutions, incubated on the plate for 1 hour. After 3 rounds of washing with PBST, secondary antibodies HRP goat anti-mouse IgG (Abmart) or HRP goat anti-human IgG (Sigma), depending on the species of the IgGs were added and incubated for another hour. The plates were washed three times with PBST, then developed with TMB (Biopanda). HCl was added to the plates to stop the reaction. Absorbance at 450 nm was read on Emax precision microplate reader (Molecular Devices).

[15] = biological target: T3, native full length human CB1 receptor …; experiment: binding to CB1 cells (FIG. 12); unlabeled P4B5
[16] = biological target: T6, A139 iCAPS (CB1 with ICL3 native sequence replaced with BRIL) (human, UniProt P21554 99-414); experiment: ELISA, purified IgG on A139 CB1 iCAPS
T6 construct: The insert stands inside the chain in place of ICL3
Method: as §3

[17] = biological target: T3, native full length human CB1 receptor …; experiment: binding to CB1 cells (FIG. 12); labeled with Vivotag 680 XL
[18] = biological target: T3, native full length human CB1 receptor …; experiment: flow cytometry, A156 cells; batch 1.01 mg/ml; A156 cells; batch 1.01 mg/ml, first of two such rows
Method: as §1, §2

[19] = biological target: T3, native full length human CB1 receptor …; experiment: flow cytometry, TRex-CHO human CB1 cells; mean of batch 1
Method: (§4) TRex CHO parental cells, and TRex-CHO cells stably transfected with tetracycline inducible human CB1, human CB2 or mouse CB1 expression constructs were harvested. […] Cells were then centrifuged at 4° C. at 1600 rpm for 3 minutes; supernatant was aspirated and cells were washed with 200 μL FACS buffer. The washing procedure was repeated twice. After the final wash, cells were re-suspended in FACS buffer containing PE-conjugated anti-human Fc secondary antibody (1:200 dilutions) and incubated at 4° C. for 30 minutes. Cells were washed with 200 μL FACS buffer twice and analyzed by flow cytometry (Guava). Data analysis and measurement of binding affinity (KD) was performed using GraphPad Prism software.

[20] = biological target: T3, native full length human CB1 receptor …; experiment: flow cytometry, TRex-CHO human CB1 cells; mean ± SD
Method: as §4

mouse CB1 [21] = biological target: T4, mouse CB1; experiment: flow cytometry on TRex-CHO mouse CB1 cells, lower panel
Method: (§5) After being washed with 200 μl of FACS buffer twice, cells were incubated with PE conjugated anti-human secondary antibody (Southern Biotech) for 30 minutes on ice. Cells were washed with 200 μl of FACS buffer twice and transferred to BD Falcon 5 ml tube and analyzed by flow cytometry (BD FACScalibur).

[22] = biological target: T3, native full length human CB1 receptor …; experiment: flow cytometry, TRex-CHO human CB1 cells; mean of batch 3
Method: as §4

[23] = biological target: T1, TRex CHO A56 over-expressed CB1 (CB1 …); experiment: flow cytometry, A56 cells; batch 1.25 mg/ml
Method: as §1, §2

[24] = biological target: T3, native full length human CB1 receptor …; experiment: flow cytometry, A156 cells; batch 0.49 mg/ml
Method: as §1, §2

[25] = biological target: T3, native full length human CB1 receptor …; experiment: flow cytometry on TRex-CHO cells with tetracycline inducible human CB1
Method: as §4

[26] = biological target: T3, native full length human CB1 receptor …; experiment: cell-based or functional assay
human CB2 [27] = biological target: T2, human CB2; experiment: flow cytometry on TRex-CHO human CB2 cells, middle panel
Method: as §5

[28] = biological target: T3, native full length human CB1 receptor …; experiment: flow cytometry, A156 cells; batch 1.01 mg/ml
Method: as §1, §2

[29] = biological target: T3, native full length human CB1 receptor …; experiment: cell-based or functional assay; remark: listed apart in the source
[30] = biological target: T3, native full length human CB1 receptor …; experiment: flow cytometry, TRexCHO A156 cells
Method: as §5

[31] = biological target: T1, TRex CHO A56 over-expressed CB1 (CB1 …); experiment: flow cytometry, A56 cells; batch 1.01 mg/ml
Method: as §1, §2

[32] = biological target: T3, native full length human CB1 receptor …; experiment: cell-based or functional assay; remark: listed apart in the source
[33] = biological target: T3, native full length human CB1 receptor …; experiment: flow cytometry, TRex-CHO human CB1 cells; mean of batch 2
Method: as §4

[34] = biological target: T1, TRex CHO A56 over-expressed CB1 (CB1 …); experiment: flow cytometry, TRexCHO A56 cells
Method: as §5

[35] = biological target: T3, native full length human CB1 receptor …; experiment: flow cytometry, A156 cells; batch 1.25 mg/ml
Method: as §1, §2

Sequence of 5HT2B (expression cell line) (P41595 whole entry): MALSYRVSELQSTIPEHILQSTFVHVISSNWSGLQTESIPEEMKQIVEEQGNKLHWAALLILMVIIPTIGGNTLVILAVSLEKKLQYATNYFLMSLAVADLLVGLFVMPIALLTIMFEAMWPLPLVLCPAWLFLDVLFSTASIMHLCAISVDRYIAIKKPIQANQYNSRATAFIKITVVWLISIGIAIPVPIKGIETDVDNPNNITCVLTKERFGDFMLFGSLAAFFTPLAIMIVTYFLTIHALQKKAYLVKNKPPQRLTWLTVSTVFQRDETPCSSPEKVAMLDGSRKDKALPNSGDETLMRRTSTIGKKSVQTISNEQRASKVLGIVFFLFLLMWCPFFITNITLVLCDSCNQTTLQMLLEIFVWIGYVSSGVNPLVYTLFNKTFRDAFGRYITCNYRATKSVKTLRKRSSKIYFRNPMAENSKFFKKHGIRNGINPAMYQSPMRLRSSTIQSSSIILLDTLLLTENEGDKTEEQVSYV
T2 sequence (P34972 whole entry): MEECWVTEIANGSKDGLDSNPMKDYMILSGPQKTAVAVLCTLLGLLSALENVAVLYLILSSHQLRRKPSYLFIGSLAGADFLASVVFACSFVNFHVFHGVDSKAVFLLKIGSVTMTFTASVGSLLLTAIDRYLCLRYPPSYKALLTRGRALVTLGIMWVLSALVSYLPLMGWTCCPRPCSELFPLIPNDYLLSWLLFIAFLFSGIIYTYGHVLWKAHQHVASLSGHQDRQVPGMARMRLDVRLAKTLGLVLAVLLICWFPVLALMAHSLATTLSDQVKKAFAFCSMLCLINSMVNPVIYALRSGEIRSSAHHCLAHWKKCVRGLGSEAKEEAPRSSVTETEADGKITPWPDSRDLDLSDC
T4 sequence (P47746 whole entry): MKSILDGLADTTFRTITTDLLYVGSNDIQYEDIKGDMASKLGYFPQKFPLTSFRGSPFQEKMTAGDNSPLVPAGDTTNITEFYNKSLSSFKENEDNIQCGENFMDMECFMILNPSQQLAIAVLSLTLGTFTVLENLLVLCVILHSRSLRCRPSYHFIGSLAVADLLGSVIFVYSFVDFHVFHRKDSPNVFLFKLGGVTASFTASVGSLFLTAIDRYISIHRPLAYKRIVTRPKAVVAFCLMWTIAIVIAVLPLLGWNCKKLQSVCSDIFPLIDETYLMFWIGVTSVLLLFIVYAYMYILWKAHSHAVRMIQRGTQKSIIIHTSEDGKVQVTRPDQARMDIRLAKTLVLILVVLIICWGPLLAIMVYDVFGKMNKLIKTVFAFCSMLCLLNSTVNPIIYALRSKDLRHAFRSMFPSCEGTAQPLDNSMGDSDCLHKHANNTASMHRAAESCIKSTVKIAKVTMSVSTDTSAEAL

B1: 36E12B6C2 IgG (hybridoma-derived) (antibody, V domains shown)
VH: QVQLQQSGAELVRPGSSVKISCKASGYEFSYYWMNWVKQRPGQGLQWIGQIYPGDGDTNYNGKFKGKATLTADKSSSTAYMHLTSLTSEDSAVYFCARSGGNPFAFWGQGTLVTVSA
VL: DIQMTQTSSSLSASLGDRVTFSCRASQDISNYLNWYQQKPDGTVKLLIYYTSRLHSGVTSRFRGSGSGTDYSLTISNLEQEDVATYFCQQGHTLPWSFGGGTKLEIKR
For B1, the “EC50 (read off the curve)” value [1] was ~40 nM, the binding result (human CB2 [2]) was “no binding (tested: 1000 nM)” and the binding result [3] was “no binding (tested: 1000 nM)”. The “EC50 (read off the curve)” value [4] was ~60 nM, the Kd [5] was 69.4 nM and the Kd [6] was 29.3 nM. The Kd [7] was 60.2 nM, the binding result (mouse CB1 [8]) was “no binding (tested: 1 µM)” and the Kd [9] was 26 nM. For the same binder, the Kd [10] was 64 nM, the Kd [11] was 151 nM and the Kd [12] was 51.9 nM. For the same binder, the Kd [13] was 27.7 nM.

B2: PA2LR3-P4B5 (chimeric) (antibody, human IgG1, kappa, V domains shown)
VH: EVQLQQSGAELVRPGSSVKISCKASGYAFSYYWMNWVKQRPGQGLEWIGQIYPGDGDTNYSGRFKGKATLTADKSSSTAYIQLSSLTSEDSAVYFCARSHGNYFPYWGQGTLVTVSA
VL: DIVLNQSPAIMSASLGERVTMTCTASSSVSSSYLHWYQQKPGSSPKLWIYSTSNLASGVPARFSGSGSGTSYSLTISSMEAEDAATYYCHQYHRSPLTFGAGTKLEIKR
For B2, the EC50 [14] was 0.24 nM, the EC50 [15] was 60.5 nM and the EC50 [16] was 0.24 nM.

B3: P4B5 antibody labeled with Vivotag 680 XL (antibody, human IgG1, kappa, V domains shown)
VH: EVQLQQSGAELVRPGSSVKISCKASGYAFSYYWMNWVKQRPGQGLEWIGQIYPGDGDTNYSGRFKGKATLTADKSSSTAYIQLSSLTSEDSAVYFCARSHGNYFPYWGQGTLVTVSA
VL: DIVLNQSPAIMSASLGERVTMTCTASSSVSSSYLHWYQQKPGSSPKLWIYSTSNLASGVPARFSGSGSGTSYSLTISSMEAEDAATYYCHQYHRSPLTFGAGTKLEIKR
modifications: Vivotag 680 XL label, site and chain not stated
notes: also called Labeled P4B5
For B3, the EC50 [17] was 57.8 nM.

B4: PA13R3-P1C4 (chimeric) IgG (antibody, V domains shown)
VH: EVQLQQSGAELVRPGVSVKISCKASGYEFSYYWMNWVKQRPGQGLEWIGQIYPGDGETKYNGKFKGKATLTADKSSNTAYMQLSSLTSEDSAVYFCARSHGNYLPYWGQGTLVTVSA
VL: DIVLTQSPAIMSASLGERVTMTCTASSSVSSSYLHWYQQKPGSSPKLWIYSTSNLASGVPARFSGSGSGTSYSLTISSMEAEDAATYYCHQYHRSPPTFGAGTKLELKR
notes: Phage-derived mouse variable regions on human constant regions; also called Chimeric P1C4-IgG; PA13R3-P1C4 IgG
For B4, the Kd [18] was 40.5 nM, the “EC50 (read off the curve)” value [1] was ~20 nM and the binding result [3] was “no binding (tested: 1000 nM)”. The “EC50 (read off the curve)” value [4] was ~30 nM, the Kd [19] was 92 nM and the Kd [20] was 103 nM. The EC50 [14] was 0.172 nM, the binding result (mouse CB1 [21]) was “no binding (tested: about 300 nM (last point))” and the Kd [22] was 96 nM. For the same binder, the Kd [23] was 50.6 nM, the Kd [24] was 187 nM and the “EC50 (read off the curve)” value [25] was ~60 nM and ~40 nM. The “IC50, cAMP functional antagonist assay” value [26] was 90 nM, the binding result (human CB2 [27]) was “no binding (tested: about 300 nM (last point))” and the Kd [28] was 171 nM. The “IC50 (nM), cAMP assay” value [29] was 93 nM, the Kd [30] was 25 nM and the EC50 [16] was 0.175 nM. The Kd [31] was 27.3 nM, the “cAMP IC50 (nM) Mean of Batch 1 [n]” value [32] was 120 nM and the “cAMP IC50 (nM) Mean of Batch 2 [n]” value [32] was 155 nM. It also gave a Kd [33] of 116 nM, a Kd [34] of 10.5 nM and a Kd [35] of 72.6 nM.

Reference: patent US20260176352A1 (BIRD ROCK BIO, published 2026)
